From the MegaScale stability set (Tsuboyama et al. 2023)

B1: EEHEE_rd3_1049 (parent)
chain: TTVKLGDIKVTFDNPEKAKKYAQKLAKIYQLTVHVHGDTIHVK
B2: 1ZHC (parent)
chain: HEFRDEISVLKANNPHFDKIFEKHNQLDDDIKTAEQQNASDAEVSHMKKQKLKLKDEIHSMIIEYREK

Variants of: B1
Experiment: folding stability dG (cDNA display proteolysis); higher = more stable
Conditions: PBS, room temperature

| Variant | folding stability dG [kcal/mol] |
| --- | --- |
| TTVKLGDIKVTFDNPEKAKKYAQKLAKIYQLTVHVHGDTITVK | 2.23 |
| TTVKLGDIKVTFDNPEKAKKYAQKLAKIYQLTVHVHGDTIPVK | 0.283 |
| TTVKLGDIKVTFDNPEKAKKYAQKLAKIYQLTVHVHGDTIFVK | 2.37 |
| TTVKLGDIKVTFDNPEKAKKYAQKLAKIYQLTVHVHGDTIWVK | 2.31 |
| TTVKLGDIKVTFDNPEKAKKYAQKLAKIYQLTVHVHGDTIMVK | 1.86 |
| TTVKLGDIKVTFDNPEKAKKYAQKLAKIYQLTVHVHGDTILVK | 2.17 |
| TTVKLGDIKVTFDNPEKAKKYAQKLAKIYQLTVHVHGDTIVVK | 2.44 |
| TTVKLGDIKVTFDNPEKAKKYAQKLAKIYQLTVHVHGDTINVK | 1.32 |
| TTVKLGDIKVTFDNPEKAKKYAQKLAKIYQLTVHVHGDTIKVK | 1.1 |
| TTVKLGDIKVTFDNPEKAKKYAQKLAKIYQLTVHVHGDTIDVK | 1.49 |
| TTVKLGDIKVTFDNPEKAKKYAQKLAKIYQLTVHVHGDTISVK | 1.65 |
| TTVKLGDIKVTFDNPEKAKKYAQKLAKIYQLTVHVHGDTIRVK | 1.25 |
| TTVKLGDIKVTFDNPEKAKKYAQKLAKIYQLTVHVHGDTIEVK | 2.44 |
| TTVKLGDIKVTFDNPEKAKKYAQKLAKIYQLTVHVHGDTIQVK | 1.55 |
| TTVKLGDIKVTFDNPEKAKKYAQKLAKIYQLTVHVHGDTIGVK | 0.476 |
| TTVKLGDIKVTFDNPEKAKKYAQKLAKIYQLTVHVHGDTICVK | 2.41 |
| TTVKLGDIKVTFDNPEKAKKYAQKLAKIYQLTVHVHGDTIIVK | 2.58 |
| TTVKLGDIKVTFDNPEKAKKYAQKLAKIYQLTVHVHGDTIAVK | 1.26 |
| TTVKLGDIKVTFDNPEKAKKYAQKLAKIYQLTVHVHGDTIYVK | 2.6 |
| TTVKLGDIKVTFDNPEKAKKYAQKLAKIYQLTVHVHGDTIHVM | 2.56 |
| TTVKLGDIKVTFDNPEKAKKYAQKLAKIYQLTVHVHGDTIHVA | 2.07 |
| TTVKLGDIKVTFDNPEKAKKYAQKLAKIYQLTVHVHGDTIHVW | 2.48 |
| TTVKLGDIKVTFDNPEKAKKYAQKLAKIYQLTVHVHGDTIHVI | 2.62 |
| TTVKLGDIKVTFDNPEKAKKYAQKLAKIYQLTVHVHGDTIHVF | 2.85 |

| Variant | folding stability dG [kcal/mol] |
| --- | --- |
| TTVKLGDIKVTFDNPEKAKKYAQKLAKIYQLTVHVHGDTIHVV | 2.68 |
| TTVKLGDIKVTFDNPEKAKKYAQKLAKIYQLTVHVHGDTIHVS | 2.17 |
| TTVKLGDIKVTFDNPEKAKKYAQKLAKIYQLTVHVHGDTIHVN | 1.58 |
| TTVKLGDIKVTFDNPEKAKKYAQKLAKIYQLTVHVHGDTIHVC | 3.65 |
| TTVKLGDIKVTFDNPEKAKKYAQKLAKIYQLTVHVHGDTIHVP | 0.706 |
| TTVKLGDIKVTFDNPEKAKKYAQKLAKIYQLTVHVHGDTIHVL | 2.57 |
| TTVKLGDIKVTFDNPEKAKKYAQKLAKIYQLTVHVHGDTIHVH | 2.19 |
| TTVKLGDIKVTFDNPEKAKKYAQKLAKIYQLTVHVHGDTIHVQ | 2.16 |
| TTVKLGDIKVTFDNPEKAKKYAQKLAKIYQLTVHVHGDTIHVT | 2.48 |
| TTVKLGDIKVTFDNPEKAKKYAQKLAKIYQLTVHVHGDTIHVG | 2.51 |
| TTVKLGDIKVTFDNPEKAKKYAQKLAKIYQLTVHVHGDTIHVY | 2.64 |
| TTVKLGDIKVTFDNPEKAKKYAQKLAKIYQLTVHVHGDTIHVR | 2.36 |
| TTVKLGDIKVTFDNPEKAKKYAQKLAKIYQLTVHVHGDTIHVD | 1.61 |
| TTVKLGDIKVTFDNPEKAKKYAQKLAKIYQLTVHVHGDTIHVE | 1.91 |
| TTVKLGDIKVTFDNPEKAKKYAQKLAKIYQLTVHVHGDTYHVK | 1.66 |
| TTVKLGDIKVTFDNPEKAKKYAQKLAKIYQLTVHVHGDTNHVK | 0.239 |
| TTVKLGDIKVTFDNPEKAKKYAQKLAKIYQLTVHVHGDTVHVK | 1.3 |
| TTVKLGDIKVTFDNPEKAKKYAQKLAKIYQLTVHVHGDTLHVK | 1.66 |
| TTVKLGDIKVTFDNPEKAKKYAQKLAKIYQLTVHVHGDTKHVK | 0.443 |
| TTVKLGDIKVTFDNPEKAKKYAQKLAKIYQLTVHVHGDTQHVK | 0.438 |
| TTVKLGDIKVTFDNPEKAKKYAQKLAKIYQLTVHVHGDTRHVK | 0.214 |
| TTVKLGDIKVTFDNPEKAKKYAQKLAKIYQLTVHVHGDTWHVK | 1.28 |
| TTVKLGDIKVTFDNPEKAKKYAQKLAKIYQLTVHVHGDTHHVK | 0.576 |
| TTVKLGDIKVTFDNPEKAKKYAQKLAKIYQLTVHVHGDTMHVK | 1.16 |

| Variant | folding stability dG [kcal/mol] |
| --- | --- |
| TTVKLGDIKVTFDNPEKAKKYAQKLAKIYQLTVHVHGDTPHVK | 0.463 |
| TTVKLGDIKVTFDNPEKAKKYAQKLAKIYQLTVHVHGDTSHVK | 0.541 |
| TTVKLGDIKVTFDNPEKAKKYAQKLAKIYQLTVHVHGDTTHVK | 0.449 |
| TTVKLGDIKVTFDNPEKAKKYAQKLAKIYQLTVHVHGDTIHNK | 0.487 |
| TTVKLGDIKVTFDNPEKAKKYAQKLAKIYQLTVHVHGDTIHQK | 0.328 |
| TTVKLGDIKVTFDNPEKAKKYAQKLAKIYQLTVHVHGDTIHRK | 0.284 |
| TTVKLGDIKVTFDNPEKAKKYAQKLAKIYQLTVHVHGDTIHWK | 0.918 |
| TTVKLGDIKVTFDNPEKAKKYAQKLAKIYQLTVHVHGDTIHAK | 0.602 |
| TTVKLGDIKVTFDNPEKAKKYAQKLAKIYQLTVHVHGDTIHSK | 0.478 |
| TTVKLGDIKVTFDNPEKAKKYAQKLAKIYQLTVHVHGDTIHDK | 0.236 |
| TTVKLGDIKVTFDNPEKAKKYAQKLAKIYQLTVHVHGDTIHTK | 0.607 |
| TTVKLGDIKVTFDNPEKAKKYAQKLAKIYQLTVHVHGDTIHMK | 1.7 |
| TTVKLGDIKVTFDNPEKAKKYAQKLAKIYQLTVHVHGDTIHEK | 0.303 |
| TTVKLGDIKVTFDNPEKAKKYAQKLAKIYQLTVHVHGDTIHHK | 0.289 |
| TTVKLGDIKVTFDNPEKAKKYAQKLAKIYQLTVHVHGDTIHFK | 1.95 |
| TTVKLGDIKVTFDNPEKAKKYAQKLAKIYQLTVHVHGDTIHLK | 2.83 |
| TTVKLGDIKVTFDNPEKAKKYAQKLAKIYQLTVHVHGDTIHPK | 0.257 |
| TTVKLGDIKVTFDNPEKAKKYAQKLAKIYQLTVHVHGDTIHGK | 0.341 |
| TTVKLGDIKVTFDNPEKAKKYAQKLAKIYQLTVHVHGDTIHYK | 0.874 |
| TTVKLGDIKVTFDNPEKAKKYAQKLAKIYQLTVHVHGDTIHCK | 1.79 |
| TTVKLGDIKVTFDNPEKAKKYAQKLAKIYQLTVHVHGDTIHKK | 0.386 |
| TTVKLGDIKVTFDNPEKAKKYAQKLAKIYQLTVHVHGDTIHIK | 2.02 |

Variants of: B2
Experiment: as above
Conditions: PBS, room temperature

| Variant | folding stability dG [kcal/mol] |
| --- | --- |
| SEFRDEISVLKANNPHFDKIFEKHNQLDDDIKTAEQQNASDAEVSHMKKQKLKLKDEIHSMIIEYREK | 1.03 |
| AEFRDEISVLKANNPHFDKIFEKHNQLDDDIKTAEQQNASDAEVSHMKKQKLKLKDEIHSMIIEYREK | 0.874 |
| NEFRDEISVLKANNPHFDKIFEKHNQLDDDIKTAEQQNASDAEVSHMKKQKLKLKDEIHSMIIEYREK | 0.835 |
| FEFRDEISVLKANNPHFDKIFEKHNQLDDDIKTAEQQNASDAEVSHMKKQKLKLKDEIHSMIIEYREK | 1.05 |
| EEFRDEISVLKANNPHFDKIFEKHNQLDDDIKTAEQQNASDAEVSHMKKQKLKLKDEIHSMIIEYREK | 1.23 |
| MEFRDEISVLKANNPHFDKIFEKHNQLDDDIKTAEQQNASDAEVSHMKKQKLKLKDEIHSMIIEYREK | 1.11 |
| TEFRDEISVLKANNPHFDKIFEKHNQLDDDIKTAEQQNASDAEVSHMKKQKLKLKDEIHSMIIEYREK | 0.856 |
| LEFRDEISVLKANNPHFDKIFEKHNQLDDDIKTAEQQNASDAEVSHMKKQKLKLKDEIHSMIIEYREK | 1.12 |
| REFRDEISVLKANNPHFDKIFEKHNQLDDDIKTAEQQNASDAEVSHMKKQKLKLKDEIHSMIIEYREK | 0.829 |
| PEFRDEISVLKANNPHFDKIFEKHNQLDDDIKTAEQQNASDAEVSHMKKQKLKLKDEIHSMIIEYREK | 0.497 |
| IEFRDEISVLKANNPHFDKIFEKHNQLDDDIKTAEQQNASDAEVSHMKKQKLKLKDEIHSMIIEYREK | 0.939 |
| DEFRDEISVLKANNPHFDKIFEKHNQLDDDIKTAEQQNASDAEVSHMKKQKLKLKDEIHSMIIEYREK | 1.28 |
| GEFRDEISVLKANNPHFDKIFEKHNQLDDDIKTAEQQNASDAEVSHMKKQKLKLKDEIHSMIIEYREK | 0.836 |
| YEFRDEISVLKANNPHFDKIFEKHNQLDDDIKTAEQQNASDAEVSHMKKQKLKLKDEIHSMIIEYREK | 0.73 |
| WEFRDEISVLKANNPHFDKIFEKHNQLDDDIKTAEQQNASDAEVSHMKKQKLKLKDEIHSMIIEYREK | 1.34 |
| QEFRDEISVLKANNPHFDKIFEKHNQLDDDIKTAEQQNASDAEVSHMKKQKLKLKDEIHSMIIEYREK | 0.787 |

| Variant | folding stability dG [kcal/mol] |
| --- | --- |
| VEFRDEISVLKANNPHFDKIFEKHNQLDDDIKTAEQQNASDAEVSHMKKQKLKLKDEIHSMIIEYREK | 0.768 |
| KEFRDEISVLKANNPHFDKIFEKHNQLDDDIKTAEQQNASDAEVSHMKKQKLKLKDEIHSMIIEYREK | 0.855 |
| HAFRDEISVLKANNPHFDKIFEKHNQLDDDIKTAEQQNASDAEVSHMKKQKLKLKDEIHSMIIEYREK | 1.29 |
| HSFRDEISVLKANNPHFDKIFEKHNQLDDDIKTAEQQNASDAEVSHMKKQKLKLKDEIHSMIIEYREK | 0.328 |
| HQFRDEISVLKANNPHFDKIFEKHNQLDDDIKTAEQQNASDAEVSHMKKQKLKLKDEIHSMIIEYREK | 1.07 |
| HMFRDEISVLKANNPHFDKIFEKHNQLDDDIKTAEQQNASDAEVSHMKKQKLKLKDEIHSMIIEYREK | 0.855 |
| HGFRDEISVLKANNPHFDKIFEKHNQLDDDIKTAEQQNASDAEVSHMKKQKLKLKDEIHSMIIEYREK | 0.827 |
| HLFRDEISVLKANNPHFDKIFEKHNQLDDDIKTAEQQNASDAEVSHMKKQKLKLKDEIHSMIIEYREK | 1.08 |
| HRFRDEISVLKANNPHFDKIFEKHNQLDDDIKTAEQQNASDAEVSHMKKQKLKLKDEIHSMIIEYREK | 1.19 |
| HNFRDEISVLKANNPHFDKIFEKHNQLDDDIKTAEQQNASDAEVSHMKKQKLKLKDEIHSMIIEYREK | 0.525 |
| HHFRDEISVLKANNPHFDKIFEKHNQLDDDIKTAEQQNASDAEVSHMKKQKLKLKDEIHSMIIEYREK | 0.917 |
| HDFRDEISVLKANNPHFDKIFEKHNQLDDDIKTAEQQNASDAEVSHMKKQKLKLKDEIHSMIIEYREK | 0.711 |
| HPFRDEISVLKANNPHFDKIFEKHNQLDDDIKTAEQQNASDAEVSHMKKQKLKLKDEIHSMIIEYREK | 0.82 |
| HIFRDEISVLKANNPHFDKIFEKHNQLDDDIKTAEQQNASDAEVSHMKKQKLKLKDEIHSMIIEYREK | 0.998 |
| HKFRDEISVLKANNPHFDKIFEKHNQLDDDIKTAEQQNASDAEVSHMKKQKLKLKDEIHSMIIEYREK | 0.746 |
| HFFRDEISVLKANNPHFDKIFEKHNQLDDDIKTAEQQNASDAEVSHMKKQKLKLKDEIHSMIIEYREK | 0.966 |
